Our source for the stoichiometry N values is article PMC11406985.

This experiment has as its target medusavirus major capsid protein (medusavirus). Nature of the experiment: cryo-EM structure; purified medusavirus particles (DNA-empty and DNA-full) assembled in infected amoebae, in PBS; single particle analysis with block-based reconstruction of fivefold, threefold and twofold blocks, 7.3-9.9 Å; AlphaFold2 model of the MCP fitted into the map.

With “medusavirus major capsid protein (natural protein)”, the stoichiometry N was determined as 3.

By stoichiometry N is commonly meant a count of units in the complex or per binding partner.
